Data published in US20150346208A1 (SPRING BIOSCIENCE, published 2015).
Each block holds one binder with its values, some of them ahead of it.

Legend:
[1] = biological target: T1, human PD-L1 (Programmed death ligand-1) (human, UniProt Q9NZQ7 19-290); test: IHC on FFPE placenta, 0.11-28 µg/ml
T1 construct: whole, on cells; Endogenous protein; For IHC it was in formalin-fixed, paraffin-embedded tissue sections; for the Western blot it was in SDS-PAGE-fractionated cell lysates (45-55 kDa band); also called B7-H1; PDCD1L1

[2] = biological target: T2, peptide immunogen CGIQDTNSKKQSDTHLEET (human PD-L1 aa 272-290) (human); test: ELISA, immobilized peptide immunogen (human PD-L1 aa272-290)
T2 construct: Synthetic peptide, immobilized in the ELISA; also called immobilized peptide immunogen; 19-amino acid peptide
T2 peptide: CGIQDTNSKKQSDTHLEET
Experimental: ELISA studies were performed with the SP263 antibody to evaluate binding to the immobilized peptide immunogen (human PD-L1 aa272-290).

[3] = biological target: T1, human PD-L1 (Programmed death ligand-1); test: IHC on FFPE placenta, 0.9 µg/ml
Experimental: Rabbit anti-human PD-L1 monoclonal antibodies SP263, J45H2L4 and J27H6L4 were applied onto formalin-fixed paraffin embedded (FFPE) tissue samples to assess the staining patterns of these antibodies. Tissue samples include placenta (positive control), stomach (negative control) and colon. Immunohistochemistry was performed on BenchMark Ultra (Ventana Medical System) using StdCC1 cell conditioning and standard Opt iView DAB detection protocol. Each primary antibody was incubated at 0.9 μg/ml for 16 min.

T1 sequence (Q9NZQ7 19-290): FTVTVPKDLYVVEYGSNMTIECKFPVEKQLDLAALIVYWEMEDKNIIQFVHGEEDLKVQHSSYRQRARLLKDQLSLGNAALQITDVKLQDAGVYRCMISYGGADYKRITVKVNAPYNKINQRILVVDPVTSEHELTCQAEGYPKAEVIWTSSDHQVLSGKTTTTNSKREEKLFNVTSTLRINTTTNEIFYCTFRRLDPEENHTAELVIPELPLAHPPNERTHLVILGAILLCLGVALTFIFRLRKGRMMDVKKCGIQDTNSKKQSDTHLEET

EC50 [2]: 0.015 nM
B1: SP263 rabbit anti-human PD-L1 monoclonal antibody (antibody, V domains shown)
VH: QSLEESGGRLVTPGTPLTLTCTASGFSLSNHAISWVRQAPGKGLEWIGTINSDTHTYYATWPKGRFTISKTSSTTVDLKMTSPTTEDTATYFCARRIFSSSNIWGPGTLVTVSS
VL: AIVMTQTSSPVSAVVGGTVAINCQASQSIYNNNWLSWFQQKPGQPPKLLIYLASTLASGVPSRFKGSGSGTQFTLTISDVVCDDAATYYCIGGESSNNDGIAFGGGTEVVVK
notes: the rabbit constant regions are not; also called SP263 anti-PD-L1 antibody
binding result [1]: binds

B2: J45H2L4 rabbit anti-human PD-L1 monoclonal antibody (antibody, V domains shown)
VH: QSLEESGGRLVTPGTPLTLTCTASGFSLSSNAISWVRQAPGKGLEWIGTINSDSHIYSATWAKGRFTISKTSTAVDLKMTSPTTEDTATYFCAGRLFSSTNIWGPGTLVTVSS
VL: VMTQTSSPVSAAVGGTVTINCQASQSIYKDNWLSWFQQKPGQPPKLLIYLASTLASGVPSRFKGSGSGTQFTLTISDVVCDDAATYYCLGGESSSDDGIAFGGGTEVVVK
notes: the rabbit constant regions are not; also called anti-PD-L1 antibody clone J45H2L4
binding result [3]: binds
